Assay results as given in publication PMC9445180.

Tests used:
[1] = target: HTRA3^PD/PDZ-ΔLoopA (human) (UniProt P83110); assay: SEC; HTRA proteins and their LoopA deletion mutants alone; Superdex 200 Increase 3.2/300; 200 mM NaCl, 20 mM HEPES pH 7.5, 0.25% CHAPS; size against gel filtration standard
[2] = target: HTRA2^PD/PDZ-ΔLoopA (human) (UniProt O43464); assay: as above

| stoichiometry N [1] | stoichiometry N [2] | Substance |
| --- | --- | --- |
| 3 |  | HTRA3^PD/PDZ-ΔLoopA (from UniProt P83110 130-453) (domain or fragment) |
|  | 3 | HTRA2^PD/PDZ-ΔLoopA (from UniProt O43464 134-458) (domain or fragment) |
